Where a chain is given by its changes, count along the chain named. Non-standard residues stand in square brackets, D forms with d. No end group written: not given here. NMeY = CN[C@@H](Cc1ccc(O)cc1)C(=O)O; Aib = CC(C)(N)C(=O)O
B1: Compound 507 (peptide)
peptide: YXEGTXISDYSIXXDRXHQXNFVNWXLAQRPSSGAPPPS
modifications: N-methyl on Tyr1 (Me-Tyr); Aib at 2, 13, 17, 20; Iva at 6, 26; Lys(Heda-GGGGG-) at 14; C-terminal NH2
B2: Compound 510 (peptide)
peptide: B1 peptide
modifications: N-methyl on Tyr1 (Me-Tyr); Aib at 2, 13, 17, 20; Iva at 6, 26; Lys(Hepda-GGGGGG-) at 14; C-terminal NH2
B3: Compound 508 (peptide)
peptide: B1 peptide
modifications: N-methyl on Tyr1 (Me-Tyr); Aib at 2, 13, 17, 20; Iva at 6, 26; Lys(Hepda-GGGGG-) at 14; C-terminal NH2
B4: Compound 509 (peptide)
peptide: B1 peptide
modifications: N-methyl on Tyr1 (Me-Tyr); Aib at 2, 13, 17, 20; Iva at 6, 26; Lys(Heda-GGGGGG-) at 14; C-terminal NH2
B5: Compound 521 (peptide)
peptide: B1 peptide
modifications: N-methyl on Tyr1 (Me-Tyr); Aib at 2, 13, 17, 20; Iva at 6, 26; Lys(Eda-GGGGGG-) at 14; C-terminal NH2
B6: Compound 8 (peptide)
peptide: Y[Aib]EGTVKSDYSI[Aib]LDKQAQ[Aib]EFVKWLLKGGPSSGAPPPSK-NH2
modifications: N-terminus assumed
SMILES: CC[C@H](C)[C@H](NC(=O)[C@H](CO)NC(=O)[C@H](Cc1ccc(O)cc1)NC(=O)[C@H](CC(=O)O)NC(=O)[C@H](CO)NC(=O)[C@H](CCCCN)NC(=O)[C@@H](NC(=O)[C@@H](NC(=O)CNC(=O)[C@H](CCC(=O)O)NC(=O)C(C)(C)NC(=O)[C@@H](N)Cc1ccc(O)cc1)[C@@H](C)O)C(C)C)C(=O)NC(C)(C)C(=O)N[C@@H](CC(C)C)C(=O)N[C@@H](CC(=O)O)C(=O)N[C@@H](CCCCN)C(=O)N[C@@H](CCC(N)=O)C(=O)N[C@@H](C)C(=O)N[C@@H](CCC(N)=O)C(=O)NC(C)(C)C(=O)N[C@@H](CCC(=O)O)C(=O)N[C@@H](Cc1ccccc1)C(=O)N[C@H](C(=O)N[C@@H](CCCCN)C(=O)N[C@@H](Cc1c[nH]c2ccccc12)C(=O)N[C@@H](CC(C)C)C(=O)N[C@@H](CC(C)C)C(=O)N[C@@H](CCCCN)C(=O)NCC(=O)NCC(=O)N1CCC[C@H]1C(=O)N[C@@H](CO)C(=O)N[C@@H](CO)C(=O)NCC(=O)N[C@@H](C)C(=O)N1CCC[C@H]1C(=O)N1CCC[C@H]1C(=O)N1CCC[C@H]1C(=O)N[C@@H](CO)C(=O)N[C@@H](CCCCN)C(N)=O)C(C)C
B7: Compound 42 (peptide)
peptide: Y[Aib]EGTVVSLYSI[Aib]LDKQAQ[Aib]EFVKW[Aib]LKGGPSSGAPPPSK-NH2
modifications: N-terminus assumed
SMILES: CC[C@H](C)[C@H](NC(=O)[C@H](CO)NC(=O)[C@H](Cc1ccc(O)cc1)NC(=O)[C@H](CC(C)C)NC(=O)[C@H](CO)NC(=O)[C@@H](NC(=O)[C@@H](NC(=O)[C@@H](NC(=O)CNC(=O)[C@H](CCC(=O)O)NC(=O)C(C)(C)NC(=O)[C@@H](N)Cc1ccc(O)cc1)[C@@H](C)O)C(C)C)C(C)C)C(=O)NC(C)(C)C(=O)N[C@@H](CC(C)C)C(=O)N[C@@H](CC(=O)O)C(=O)N[C@@H](CCCCN)C(=O)N[C@@H](CCC(N)=O)C(=O)N[C@@H](C)C(=O)N[C@@H](CCC(N)=O)C(=O)NC(C)(C)C(=O)N[C@@H](CCC(=O)O)C(=O)N[C@@H](Cc1ccccc1)C(=O)N[C@H](C(=O)N[C@@H](CCCCN)C(=O)N[C@@H](Cc1c[nH]c2ccccc12)C(=O)NC(C)(C)C(=O)N[C@@H](CC(C)C)C(=O)N[C@@H](CCCCN)C(=O)NCC(=O)NCC(=O)N1CCC[C@H]1C(=O)N[C@@H](CO)C(=O)N[C@@H](CO)C(=O)NCC(=O)N[C@@H](C)C(=O)N1CCC[C@H]1C(=O)N1CCC[C@H]1C(=O)N1CCC[C@H]1C(=O)N[C@@H](CO)C(=O)N[C@@H](CCCCN)C(N)=O)C(C)C
B8: Compound 7 (peptide)
peptide: Y[Aib]EGTVVSFYSI[Aib]LDKQAQ[Aib]EFVKWLLKGGPSSGAPPPSK-NH2
modifications: N-terminus assumed
SMILES: CC[C@H](C)[C@H](NC(=O)[C@H](CO)NC(=O)[C@H](Cc1ccc(O)cc1)NC(=O)[C@H](Cc1ccccc1)NC(=O)[C@H](CO)NC(=O)[C@@H](NC(=O)[C@@H](NC(=O)[C@@H](NC(=O)CNC(=O)[C@H](CCC(=O)O)NC(=O)C(C)(C)NC(=O)[C@@H](N)Cc1ccc(O)cc1)[C@@H](C)O)C(C)C)C(C)C)C(=O)NC(C)(C)C(=O)N[C@@H](CC(C)C)C(=O)N[C@@H](CC(=O)O)C(=O)N[C@@H](CCCCN)C(=O)N[C@@H](CCC(N)=O)C(=O)N[C@@H](C)C(=O)N[C@@H](CCC(N)=O)C(=O)NC(C)(C)C(=O)N[C@@H](CCC(=O)O)C(=O)N[C@@H](Cc1ccccc1)C(=O)N[C@H](C(=O)N[C@@H](CCCCN)C(=O)N[C@@H](Cc1c[nH]c2ccccc12)C(=O)N[C@@H](CC(C)C)C(=O)N[C@@H](CC(C)C)C(=O)N[C@@H](CCCCN)C(=O)NCC(=O)NCC(=O)N1CCC[C@H]1C(=O)N[C@@H](CO)C(=O)N[C@@H](CO)C(=O)NCC(=O)N[C@@H](C)C(=O)N1CCC[C@H]1C(=O)N1CCC[C@H]1C(=O)N1CCC[C@H]1C(=O)N[C@@H](CO)C(=O)N[C@@H](CCCCN)C(N)=O)C(C)C
B9: Compound 6 (peptide)
peptide: Y[Aib]EGTVVSLYSI[Aib]LDKQAQ[Aib]EFVKWLLKGGPSSGAPPPSK-NH2
modifications: N-terminus assumed
SMILES: CC[C@H](C)[C@H](NC(=O)[C@H](CO)NC(=O)[C@H](Cc1ccc(O)cc1)NC(=O)[C@H](CC(C)C)NC(=O)[C@H](CO)NC(=O)[C@@H](NC(=O)[C@@H](NC(=O)[C@@H](NC(=O)CNC(=O)[C@H](CCC(=O)O)NC(=O)C(C)(C)NC(=O)[C@@H](N)Cc1ccc(O)cc1)[C@@H](C)O)C(C)C)C(C)C)C(=O)NC(C)(C)C(=O)N[C@@H](CC(C)C)C(=O)N[C@@H](CC(=O)O)C(=O)N[C@@H](CCCCN)C(=O)N[C@@H](CCC(N)=O)C(=O)N[C@@H](C)C(=O)N[C@@H](CCC(N)=O)C(=O)NC(C)(C)C(=O)N[C@@H](CCC(=O)O)C(=O)N[C@@H](Cc1ccccc1)C(=O)N[C@H](C(=O)N[C@@H](CCCCN)C(=O)N[C@@H](Cc1c[nH]c2ccccc12)C(=O)N[C@@H](CC(C)C)C(=O)N[C@@H](CC(C)C)C(=O)N[C@@H](CCCCN)C(=O)NCC(=O)NCC(=O)N1CCC[C@H]1C(=O)N[C@@H](CO)C(=O)N[C@@H](CO)C(=O)NCC(=O)N[C@@H](C)C(=O)N1CCC[C@H]1C(=O)N1CCC[C@H]1C(=O)N1CCC[C@H]1C(=O)N[C@@H](CO)C(=O)N[C@@H](CCCCN)C(N)=O)C(C)C
B10: Compound 59 (peptide)
peptide: [NMeY][Aib]EGTFISDYSIALDRIAQQDFVNWLLAQRPSSGAPPPSR-NH2
modifications: N-terminus assumed
SMILES: CC[C@H](C)[C@H](NC(=O)[C@H](CCCNC(=N)N)NC(=O)[C@H](CC(=O)O)NC(=O)[C@H](CC(C)C)NC(=O)[C@H](C)NC(=O)[C@@H](NC(=O)[C@H](CO)NC(=O)[C@H](Cc1ccc(O)cc1)NC(=O)[C@H](CC(=O)O)NC(=O)[C@H](CO)NC(=O)[C@@H](NC(=O)[C@H](Cc1ccccc1)NC(=O)[C@@H](NC(=O)CNC(=O)[C@H](CCC(=O)O)NC(=O)C(C)(C)NC(=O)[C@H](Cc1ccc(O)cc1)NC)[C@@H](C)O)[C@@H](C)CC)[C@@H](C)CC)C(=O)N[C@@H](C)C(=O)N[C@@H](CCC(N)=O)C(=O)N[C@@H](CCC(N)=O)C(=O)N[C@@H](CC(=O)O)C(=O)N[C@@H](Cc1ccccc1)C(=O)N[C@H](C(=O)N[C@@H](CC(N)=O)C(=O)N[C@@H](Cc1c[nH]c2ccccc12)C(=O)N[C@@H](CC(C)C)C(=O)N[C@@H](CC(C)C)C(=O)N[C@@H](C)C(=O)N[C@@H](CCC(N)=O)C(=O)N[C@@H](CCCNC(=N)N)C(=O)N1CCC[C@H]1C(=O)N[C@@H](CO)C(=O)N[C@@H](CO)C(=O)NCC(=O)N[C@@H](C)C(=O)N1CCC[C@H]1C(=O)N1CCC[C@H]1C(=O)N1CCC[C@H]1C(=O)N[C@@H](CO)C(=O)N[C@@H](CCCNC(=N)N)C(N)=O)C(C)C
B11: Compound 10 (peptide)
peptide: Y[Aib]EGTVKSDYSILLDKQAQ[Aib]EFVKWLLKGGPSSGAPPPSK-NH2
modifications: N-terminus assumed
SMILES: CC[C@H](C)[C@H](NC(=O)[C@H](CO)NC(=O)[C@H](Cc1ccc(O)cc1)NC(=O)[C@H](CC(=O)O)NC(=O)[C@H](CO)NC(=O)[C@H](CCCCN)NC(=O)[C@@H](NC(=O)[C@@H](NC(=O)CNC(=O)[C@H](CCC(=O)O)NC(=O)C(C)(C)NC(=O)[C@@H](N)Cc1ccc(O)cc1)[C@@H](C)O)C(C)C)C(=O)N[C@@H](CC(C)C)C(=O)N[C@@H](CC(C)C)C(=O)N[C@@H](CC(=O)O)C(=O)N[C@@H](CCCCN)C(=O)N[C@@H](CCC(N)=O)C(=O)N[C@@H](C)C(=O)N[C@@H](CCC(N)=O)C(=O)NC(C)(C)C(=O)N[C@@H](CCC(=O)O)C(=O)N[C@@H](Cc1ccccc1)C(=O)N[C@H](C(=O)N[C@@H](CCCCN)C(=O)N[C@@H](Cc1c[nH]c2ccccc12)C(=O)N[C@@H](CC(C)C)C(=O)N[C@@H](CC(C)C)C(=O)N[C@@H](CCCCN)C(=O)NCC(=O)NCC(=O)N1CCC[C@H]1C(=O)N[C@@H](CO)C(=O)N[C@@H](CO)C(=O)NCC(=O)N[C@@H](C)C(=O)N1CCC[C@H]1C(=O)N1CCC[C@H]1C(=O)N1CCC[C@H]1C(=O)N[C@@H](CO)C(=O)N[C@@H](CCCCN)C(N)=O)C(C)C
B12: Compound 520 (peptide)
peptide: YXEGTXISDYSIXXDRXAQXNFVNWXLAQRPSSGAPPPSR
modifications: N-methyl on Tyr1 (Me-Tyr); Aib at 2, 13, 17, 20; Iva at 6, 26; Lys(Eda-GGGGGG-) at 14; C-terminal NH2
B13: Compound 522 (peptide)
peptide: B12 peptide with X6F, X13A, A18H
modifications: not fully specified; N-methyl on Tyr1 (Me-Tyr); Aib at 2, 13, 17, 20; Iva at 6, 26; Lys(Eda-GGGGGG-) at 14; C-terminal NH2
B14: Compound 113 (peptide)
peptide: B12 peptide with X14L
modifications: N-methyl on Tyr 1 (Me-Tyr); Aib at 2, 13, 17, 20; Iva at 6, 26; C-terminal amide (NH2)
B15: Compound 104 (peptide)
peptide: B12 peptide with X13A, X14L, X26L
modifications: N-methyl on Tyr 1 (Me-Tyr); Aib at 2, 17, 20; Iva at 6; C-terminal amide (NH2)

Experiments:
human GLP-1R [1] = molecular target: human GLP-1R (human, UniProt P43220); test: cell-based or functional assay
human GLP-1R [2] = molecular target: human GLP-1R (human, UniProt P43220); test: cell-based or functional assay; remark: listed apart in the source

Row | Binder | Agonist activity (EC50, M) (human GLP-1R [1]) [M] | Agonist activity (EC50, M) (human GLP-1R [2]) [M]
1 | B1 | > 1e-06 | 
2 | B2 | > 1e-06 | 
3 | B3 | > 1e-06 | 
4 | B4 | > 1e-06 | 
5 | B5 | > 1e-06 | 
6 | B6 |  | > 1e-06
7 | B7 |  | > 1e-06
8 | B8 |  | > 1e-06
9 | B9 |  | > 1e-06
10 | B10 |  | > 1e-06
11 | B11 |  | > 1e-06
12 | B12 | > 1e-06 | 
13 | B13 | > 1e-06 | 
14 | B14 |  | > 1e-06
15 | B15 |  | > 1e-06
